Key:
[1] = biological target: histidine-tagged human C5a (human) (UniProt P01031); assay: SPR; Biacore X100; His-C5a captured on a Ni-activated NTA chip at 25 RU; S512A-ScpA or S512A-79ΔPro flowed at 5.625-90 nM, 30 uL/min, association 180 s, dissociation 200 s; 10 mM HEPES-KOH pH 7.5, 150 mM NaCl, 0.005% Tween 20, 50 uM EDTA; global fit, Langmuir model; triplicates
[2] = biological target: histidine-tagged human C5a (human) (UniProt P01031); assay: SPR; Biacore X100; His-C5a captured on a Ni-activated NTA chip at 25 RU; S512A-ScpA or S512A-79ΔPro flowed at 5.625-90 nM, 30 uL/min, association 180 s, dissociation 200 s; 10 mM HEPES-KOH pH 7.5, 150 mM NaCl, 0.005% Tween 20, 50 uM EDTA; global fit with a Langmuir model; triplicates

S512A-79ΔPro (active site mutated, propeptide truncated ScpA, amino acids 79-1032) (from UniProt P15926 79-1032) (enzyme)
Kd [1]: 25 nM

S512A-79ΔPro, active site mutated propeptide-truncated ScpA (amino acids 79-1032) (from UniProt P15926 79-1032) (enzyme)
Kd [2]: 35 nM
koff [2]: 0.00467 s⁻¹
kon [2]: 187000 M⁻¹ s⁻¹

S512A-ScpA (active site mutated Streptococcus pyogenes C5a peptidase, amino acids 32-1032) (from UniProt P15926 32-1032) (enzyme)
Kd [1]: 35 nM

S512A-ScpA, active site mutated Streptococcus pyogenes C5a peptidase (amino acids 32-1032) (from UniProt P15926 32-1032)
Kd [2]: 25 nM

S512A-ScpA, active site mutated Streptococcus pyogenes C5a peptidase (amino acids 32-1032) (from UniProt P15926 32-1032) (enzyme)
koff [2]: 0.00638 s⁻¹
kon [2]: 182000 M⁻¹ s⁻¹

Source: publication PMC10410607
